Laboratory results as given in the DeepSol protein solubility set.

Assay: soluble on expression in E. coli; label from the status in PepcDB or PDB records

Row | Sequence | soluble on expression in E. coli
1 | MGSDKIHHHHHHMSQSIPEPHWHQTPQEFLASWSTSRGNLRRFFEEHALPPIDARTQREAGEAAAELAASELFGIKLDEYTSGLDSVSGSFEAAGAQHVTTANPEIPQDIGAAAFFDIDNTLIQGSSLVVFAMGLAKKKYFKLNEILPVAWKQIKFRVTGNENAHDVAEGRQQALEFIKGRRVDELVALCEEIVDNNMSEKLWPGTKQLADQHIADGQQVWLVSATPVQLAQALAKRLGFTGALGTVAEVKDGVFTGRLVGDILHGPGKLHAVAALATIERLDLSRCTAYSDSINDVPMLSMVGTAVAINPDRPLAKVAKQHGWAVRDYRSLRKAIRTFGIPALVTAAFSFGGWKAWRR | not soluble
2 | VQERIKACFTESIQTQIAAAEALPDAISRAAMTLVQSLLNGNKILCCGNGTSAANAQHFAASMINRFETERPSLPAIALNTDNVVLTAIANDRLHDEVYAKQVRALGHAGDVLLAISTRGNSRDIVKAVEAAVTRDMTIVALTGYDGGELAGLLGPQDVEIRIPSHRSARIQEMHMLTVNCLCDLIDNTLFPHQDD | soluble
3 | SVLLSRELHPVAPLLDNLISALNKVYQRKGVNISMDISPEISFVGEQNDFVEVMGNVLDNACKYCLEFVEISARQTDDHLHIFVEDDGPGIPHSKRSLVFDRGQRADTLRPGQGVGLAVAREITEQYAGQIIASDSLLGGARMEVVFGRQHPTQKEE | soluble
4 | MKNEMLALILAGGQGTRLGKLTQSIAKPAVQFGGRYRIIDFALSNCANSGIHNVGVVTQYQPLALNNHIGNGSSWGLDGINSGVSILQPYSASEGNRWFEGTSHAIYQNIDYIDSVNPEYVLILSGDHIYKMDYDDMLQSHKDNNASLTVAVLDVPLKEASRFGIMNTDANNRIVEFEEKPAQPKSTKASMGIYIFDWQRLRNMLVAAEKSKVGMSDFGKNVIPNYLESGESVYAYEFSGYWKDVGTIESLWEANMEYISPENALDSRNRQWKIYSRNLISPPNFLGANAHVEDSLVVDGCFVDGTVKHSILSTGAQVREGAEVLDSVIMSGAIIGQGAKIKRAIIGEGAIISDGVEIDGTDEVQVVGYNEVVGVATDED | not soluble
5 | MVKPMHLFAVVDALEQAQQFQQVLASRDVSTELVQIEQLNARFLRHHPELALCVDLDGLWLSANGMKMQPDWQAEIPRLKRASLKSEMIARACQINEQPSLIDATAGLGHDSLLMAYLGAHVTLVERHPVLFTLLEDAKSKAENDPFLSKYMQRIHLIFQDAHYYLQQCNQDDRKVDVIYLDPMFPQRDQHHQVIKKQAQVKKQMQLLHLLLPEDGEMDLGDQLLPLAQQIASRVVVKRPKHAVFLNEQQPDHQWQGDACRFDAYFQISM | not soluble
6 | MNNNLQRDAIAAAIDVLNEERVIAYPTEAVFGVGCDPDSETAVMRLLELKQRPVDKGLILIAANYEQLKPYIDDTMLTDVQRETIFSRWPGPVTFVFPAPATTPRWLTGRFDSLAVRVTDHPLVVALCQAYGKPLVSTSANLSGLPPCRTVDEVRAQFGAAFPVVPGETGGRLNPSEIRDALTGELFRQG | soluble
7 | MAHHHHHHMPHEDHKKYRVQREDLPAMPHFSDFNDPRFCGTTNKQKNGILAYYQWLHCIGNWGEEHSMCKKMRWYVERMMHETWLEKWEEKRALGHFDHTVLYGVKPWKEFEPLYQPVKKNRKGAYEYWLDRDFEPLYDVDAADWRERAPILHDMFVLGKKPVSE | soluble
8 | MSLNVVKFGGSSLASAPQLQKVLQIVKEEPRRTFVVVSAPGKRTPQDIKVTDLLIQYYQRYLNNEEIESTISAIIRRYEDLFDELHLDKAVLADIAISIRQLATLPKENNAFLFDYFLASGEDNNAKVVASFFKQNGLDARYISPKELGLLVTPEPGNARILPKALEKISVYRETQQILVIPGFFGYTEAGEICTFSRGGSDITGSIVAAGVQADLYENFTDVDGIYVAHPGIIEQPQTIQELTYREMRELAYAGFAVLHDEALMPAYRANIPVVIKNTNNPHHPGTLITTSRKVKHAPVVGIASDQGFASIYISKYLMNRELGFGRRLLEVLEKLALSYEHMPSGIDDITIVLREDQLTTEIENRLMAQLQEVLAPDELRITHHLSMIMIVGEGMRQRIGVTAESTMALAKEKINLEMINQGSSEVSIMFGIKKEQEEKAIKALYRTFFHDEGHHHHHH | soluble
9 | MGSDKIHHHHHHMDVSITQTSADKIKAGKSGLLLISDNYDAFAARVLAARGAARTLDLMYYLWHDDHTGRLLLQEVVRAAQRGVRVRMLLDDVNPRKSDAAYLALSNHPNIELKLFNPSGIRARGLMRGAEVLLRLFALTRRMHNKAWIADDNIAIVGGRNVGDAYFDAAETNFRDLDMLLLGPAVQQTAQIFQTFWVCQDAKPIAELGAAAPGSHAPYFEGREEKTESTLLSGIRDKGSIAEFISASSNVHWVERVRVISDPPEKVRGWRPRSWLMKELLPIIQSARKRVEIVSPYFIPGKKGSKILGDLVDDGVQVAVLTNSLAATDVAAVHGAYANYRKRLLRMGVQLFELQPFSRQPKISVFGSKGASLHTKAFSVDNRIGFVGSFNFDPRSVSLNSEMGVLFEDENLVAELRHRFKSEIAPEASYRLELKNEVLRWHGSDEGRLQTYTREPEAAWFRRILAALVRHLPIESQL | not soluble
10 | MSLARVFNACLFFYKIGGKMAMGEFDLIKRYFQQQILVDDSVQLSIGDDCALVSVPENYQLAITTDTMVENTHFLPTISPEDLAYKAVATNLSDLAAMGAQPKWVSLALTLPNVDENWISTFSQSLLHTLKQYNVTLIGGDTTKGNLSITITAQGFVEKNKGICRHKAQIGDLIYVSSTLGDSAAGLTQILLGKSAVDSDDVFLQQRHLRPTPRIELGQALIGIAHVAIDLSDGLISDLGHILERSQCSAEVELTALPLSSSILNKYDRTQAEQFALSGGEDYELCFTIPPEYKDELELRLKKLNVPCTCIGKINEKCGDFSPRFLRDGKPVNITFSSGFDHFKESKEGHHHHHH | soluble
11 | MWFRNLLVYRLTQDLQLDADSLEKALGEKSARPCASQELTTYGFTAPFGKGPDAPLVHVSQDFFLISARKEERILPGSVVRDALKEKVDEIEAQQMRKVYKKERDQLKDEIVQTLLPRAFIRRSSTFAAIAPSLGLILVDSASAKKAEDLLSTLREALGSLPVRPLSVKVAPTATLTDWVKTQEAAGDFHVLDECELRDTHEDGGVVRCKRQDLTSEEIQLHLTAGKLVTQLSLAWSDKLSFVLDDKLAVKRLRFEDLLQEQAEKDGGEDALGQLDASFTLMMLTFAEFLPALFEALGGEEIPQGV | soluble
12 | MEIDDCIRDNIPWANLSPDIKVILGNSSKEYEKRVLEYSIQNQLRYKGNLIRHMKKSEEAYYEQLLRFSESHLMLYPYHLSDITVTEMRLSPFSYYANILTEMLNTEKSYDSLPNFTAADAVRLLGIGRNQYIELMNQTRSNRKFLRRSKSARELLPQKPTKMIVESWWRTNVGSILESDVKTLNEEEKQVIDRLLDTNVAIPAGLLKYSVVTSLYDRGLIYFDVPVYDNDYIYVAPLDGFVMNRVLGDYFETLLYKIFVAIDDQTTVLEMSQILHIDLQLVKNAISVFCRLGFARKRVTGGENLTIHTSWTSNSTVTTPMSPISPMSSLITSTSDELNELTKTLLRGDDDETDDALSPVSEDSALRASSPNPSLNNSVESFQSLSTSQTASDLSGSSGTVNRAAFIFDSTLTAFLMMGNLSASLKGHAVALFEVGKLADEQMKEFLEQLESVNQFAEGDAQRYSMHATALLDSLKSLRQEREADLIRGESLYTLDEKSRQRVLQKSYGILVAMAPLSIEACAIPVQSVPLIGPPNAETCSPWFRLSIYSACSSGPPSVFLPHGTRLTTLPRVLQSFQHHRFLVSSTKHEPHIMTAQNALFALNDMLVYSSIFVQSVPLDSEDCDKMIHVPFPFEDLECETAFCNHPAIRKLREQLSLDFTAGYVILLKKSGKSITTSGSDISGRTKAESNIMQDVSLPKDGGLLKKLLPGTSFDDFLLLDCVFGVPLFNSVLNETICKRILGRGILEQQNRSNIQNSNKQVVGMINELIDTANNGLIKGSQLFVEGTDQQRNAQIVPPVRAIFFDSSQLISYGTI | not soluble
13 | KDWSLDVTANISALRNKVKSLGEGVQPIKAEVMMSGSFNDRPTITKPGLPIGTFWGYVVEGFDNDGNFIFQDNNGSVNGVLTGKPDGKIDENDKTDIGNPHPDFTYGLNINVGYKNWDLTAFFQGTQGNDIFALMKYDWYFGGANSATLKDAFYNSWTPQNPNAEAPKLNSKNSSGINSLPSTFYVEDGSYFRCKNLQIGYSFNKKLLQKFHIESFRIYAGVQNLFTITKYPLYDPEVSSNVLFDRGVDGFWQAQESPHEATMNSRVYNLGVNLTF | not soluble
